# Test results published in paper PMC10610913, “Saturation mutagenesis of α-synuclein reveals monomer fold that modulates aggregation” (Science Advances, 2023).
# Target: the molecule itself
# Assay: FRET or BRET; HEK293T biosensor cells co-expressing the CFP and the YFP fusion of one aSyn variant, seeded with increasing amounts of sonicated recombinant full-length aSyn(WT) fibrils with Lipofectamine 2000, 48 h, CFP-YFP FRET by flow cytometry, normalized to aSyn(WT) with 100 nM fibrils
protein,measurement,value
"aSyn amino acids 35 to 110, CFP/YFP (domain or fragment) not shown",fold sensitivity of the biosensor against full-length WT aSyn,≥ 4 fold
